The nature of this data set: self-splicing fitness, log relative to wild type (ln ratio); higher = more splicing; Tetrahymena group I intron in knt gene, E. coli kanamycin selection, DiMSum; sequences stand for … in CUCUCU…GGAGGGAAAAGUUAUCAGGCAUGCACCUGGUAGCUAGUCUUUAAACCAAUAGAUUGCAUCGGUUUAAAAGGCAAGACCGUCAAAUUGCGGGAAAGGGGUCAACAGCCGUUCAGUACCAAGUCUCAGGGGAAACUUUGAGAUGGCCUUGCAAAGGGUAUGGUAAUAAGCUGACGGACAUGGUCCUAACCACGCAGCCAAGUCCUAAGUCAACAGAUCUUCUGUUGAUAUGGAUGCAGUUCACAGACUAAAUGUCGGUCGGGGAAGAUGUAUUCUUCUCAUAAGAUAUAGUCGGACCUCUCCUUAAUGGGAGCUAGCGGAUGAAGUGAUGCAACACUGGAGCCGCUGGGAACUAAUUUGUAUGCGAAAGUAUAUUGAUUAGUUUUGGAGUACUCGUGGUCG
Put shortly:
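Fitness was computed with DiMSum as the error-weighted combination of replicate fold changes, kanamycin versus none, each normalised to wild type. The library randomised all eight intron nucleotides of the P1ex region, with the intron placed in the knt kanamycin-resistance gene on pET-22b(+) in E. coli BL21(DE3). Six replicate transformations were grown overnight at 37°C or 30°C on LB agar with or without 25 μg/mL kanamycin, plus 100 μg/mL carbenicillin, 50 μM IPTG and 0.2% rhamnose. Pooled colonies were amplicon-sequenced on an Illumina HiSeq 2500.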

± gives the uncertainty stated by the source.

For CGGCAGCAAUAUUACGUUAG, the “self-splicing fitness (ln)” value (30 °C) is -0.86 ± 0.057 and the “self-splicing fitness (ln)” value (37 °C) is 0.0318 ± 0.078.
For the sequence AUACAGCAAUAUUACGUAGU, the “self-splicing fitness (ln)” value is, setting by setting: (30 °C) -1.34 ± 0.067; (37 °C) -0.206 ± 0.083.
GAUAAGCAAUAUUACGCUGU: the “self-splicing fitness (ln)” value by setting is: (30 °C) -3.45 ± 0.18; (37 °C) -2.18 ± 0.2.
The corresponding values for GUUAAGCAAUAUUACGCGUA are -1.2 ± 0.17 and -0.453 ± 0.25.
For CGCUAGCAAUAUUACGUCAA, in that order: -3.88 ± 0.23 and -3.07 ± 0.23.
For AGCUAGCAAUAUUACGUUAU, in that order: -4.39 ± 0.32 and -2.19 ± 0.17.
Regarding GUUUAGCAAUAUUACGGAAA, the “self-splicing fitness (ln)” value is, setting by setting: (30 °C) -2.38 ± 0.37; (37 °C) -2.07 ± 0.28.
For the sequence AAUGAGCAAUAUUACGCGGA, the “self-splicing fitness (ln)” value by setting is: (30 °C) -2.88 ± 0.21; (37 °C) -2.13 ± 0.21.
Turning to CGGGAGCAAUAUUACGACGA, the “self-splicing fitness (ln)” value (30 °C) was -1.82 ± 0.36.
For the sequence AGCCAGCAAUAUUACGCGAA, the “self-splicing fitness (ln)” value runs as follows: (30 °C) -0.797 ± 0.26; (37 °C) -2.79 ± 0.38.
The corresponding values for AGCCAGCAAUAUUACGUGCA are -0.689 ± 0.068 and 0.0293 ± 0.087.
The corresponding values for GACUAGCAAUAUUACGUAUG are -1.82 ± 0.068 and -1.33 ± 0.091.
For UACAAGCAAUAUUACGGAAA, in that order: -2.07 ± 0.24 and -1.99 ± 0.27.
Consider AUUAAGCAAUAUUACGCGGC, for which the “self-splicing fitness (ln)” value (37 °C) is -2.33 ± 0.31.
Regarding UCCCAGCAAUAUUACGAUAC, the “self-splicing fitness (ln)” value by setting is: (30 °C) -2.17 ± 0.19; (37 °C) -2.45 ± 0.44.
For the sequence ACGGAGCAAUAUUACGCCGG, for the setting “30 °C”, the “self-splicing fitness (ln)” value is -1.09 ± 0.38.
Regarding CAAUAGCAAUAUUACGGGUU, the “self-splicing fitness (ln)” value is, setting by setting: (30 °C) -4.25 ± 0.2; (37 °C) -2.31 ± 0.14.
The corresponding values for UUAUAGCAAUAUUACGACGG are -0.906 ± 0.11 and -0.144 ± 0.16.
For CUAAAGCAAUAUUACGUCCG, in that order: 0.264 ± 0.12 and 0.68 ± 0.16.
As to ACCCAGCAAUAUUACGUGAU, the “self-splicing fitness (ln)” value by setting is: (30 °C) -0.402 ± 0.034; (37 °C) 0.181 ± 0.048.
For the sequence AACCAGCAAUAUUACGGAUA, the “self-splicing fitness (ln)” value reads like this: (30 °C) -0.931 ± 0.069; (37 °C) -0.176 ± 0.074.
As for CCUUAGCAAUAUUACGCGAU, the “self-splicing fitness (ln)” value (37 °C) is -3.16 ± 0.22.
With CGUGAGCAAUAUUACGUGUG, the “self-splicing fitness (ln)” value reads like this: (30 °C) -1.39 ± 0.1; (37 °C) -0.501 ± 0.1.
In the case of UGCUAGCAAUAUUACGGGAG, the “self-splicing fitness (ln)” value is -2.68 ± 0.17 (30 °C) and -1.65 ± 0.13 (37 °C).
The corresponding values for UUAAAGCAAUAUUACGACUA are 0.243 ± 0.1 and 0.643 ± 0.14.
Consider UUUAAGCAAUAUUACGGGGU, for which the “self-splicing fitness (ln)” value by setting is: (30 °C) -3.7 ± 0.22; (37 °C) -1.7 ± 0.19.
Turning to CUGCAGCAAUAUUACGCGCU, the “self-splicing fitness (ln)” value is, setting by setting: (30 °C) -2.68 ± 0.2; (37 °C) -2.27 ± 0.22.
For GUUCAGCAAUAUUACGCCAU, in that order: -2.66 ± 0.21 and -1.99 ± 0.14.
The corresponding values for CCUCAGCAAUAUUACGCAAC are -2.21 ± 0.3 and -1.83 ± 0.4.
On to GAGGAGCAAUAUUACGUAGA, for which the “self-splicing fitness (ln)” value is -4 ± 0.24 (30 °C) and -2.22 ± 0.19 (37 °C).
The corresponding values for GCACAGCAAUAUUACGGCCA are -1.84 ± 0.21 and -0.441 ± 0.19.
As to UCGGAGCAAUAUUACGGAAG, the “self-splicing fitness (ln)” value (37 °C) is -0.371 ± 0.41.
Regarding ACACAGCAAUAUUACGAUCC, the “self-splicing fitness (ln)” value was -1.21 ± 0.093 (30 °C) and -0.951 ± 0.13 (37 °C).
The corresponding values for CAACAGCAAUAUUACGUUGC are -4.78 ± 0.36 and -1.54 ± 0.14.
As for GGACAGCAAUAUUACGAGGC, the “self-splicing fitness (ln)” value was -2.17 ± 0.14 (30 °C) and -1.32 ± 0.2 (37 °C).
The corresponding values for CAUAAGCAAUAUUACGGCUC are -2.88 ± 0.44 and -1.88 ± 0.43.
As to UCCCAGCAAUAUUACGCAGA, the “self-splicing fitness (ln)” value was -0.882 ± 0.06 (30 °C) and -0.0561 ± 0.073 (37 °C).
For the sequence UUGGAGCAAUAUUACGGCGU, the “self-splicing fitness (ln)” value (37 °C) was -2.29 ± 0.35.
Turning to AAGCAGCAAUAUUACGUAUC, the “self-splicing fitness (ln)” value runs as follows: (30 °C) -3.07 ± 0.1; (37 °C) -1.62 ± 0.12.
The corresponding values for ACUCAGCAAUAUUACGGCUC are -0.59 ± 0.09 and -0.761 ± 0.12.
